Measurements reported in patent US20220273751A1, “GPCR HETEROMER INHIBITORS AND USES THEREOF” (GPCR THERAPEUTICS, INC., priority 2019, published 2022).

Target: T1, CXCR4-VC (CXCR4 fused with C-terminal fragment of Venus) (human)
T1 chain: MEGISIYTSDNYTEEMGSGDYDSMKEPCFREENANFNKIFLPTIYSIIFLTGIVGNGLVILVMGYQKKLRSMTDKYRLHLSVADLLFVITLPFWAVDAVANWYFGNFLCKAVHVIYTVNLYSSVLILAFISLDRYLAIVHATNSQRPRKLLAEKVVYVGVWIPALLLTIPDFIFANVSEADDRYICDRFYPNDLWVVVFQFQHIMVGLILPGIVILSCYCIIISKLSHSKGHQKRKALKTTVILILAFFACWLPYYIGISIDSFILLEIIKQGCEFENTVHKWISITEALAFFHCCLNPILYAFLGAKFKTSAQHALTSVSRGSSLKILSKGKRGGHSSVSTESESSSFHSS
Assay: BiFC, U-2 OS cells co-transduced with adenoviruses (30 MOI each)
Conditions: remark: other sources report otherwise; scale: BiFC score =

BiFC score: 9.9
B1: CXCR4-VN (CXCR4 fused with N-terminal fragment of yellow fluorescent protein Venus), P61072 1-352 (receptor, not shown: small tags and cut ends)
chain: T1 chain
modifications: here or on the partner: Venus N-terminal fragment (VN) fused to the receptor. Its letters are not given, so it is left out.; Venus C-terminal fragment (VC) fused to the receptor. Its letters are not given, so it is left out.
